Reference: article PMC10003451, “Phosphorylated Peptide Derived from the Myosin Phosphatase Target Subunit Is a Novel Inhibitor of Protein Phosphatase-1” (International Journal of Molecular Sciences, 2023)

Tests used:
[1] = target: T1, recombinant PP1cα (rPP1cα) (Homo sapiens, UniProt P62136); assay: Isothermal titration calorimetry (ITC); assay type: binding; conditions: rPP1cα 0.5–2 µM, peptide 5–20 µM, 25 mM Tris/HCl (pH 8.0), 150 mM NaCl, 1 mM TCEP, 25 °C; one set of site model
T1 construct: made in house; host or cells: E. coli
T1 sequence (P62136 whole entry): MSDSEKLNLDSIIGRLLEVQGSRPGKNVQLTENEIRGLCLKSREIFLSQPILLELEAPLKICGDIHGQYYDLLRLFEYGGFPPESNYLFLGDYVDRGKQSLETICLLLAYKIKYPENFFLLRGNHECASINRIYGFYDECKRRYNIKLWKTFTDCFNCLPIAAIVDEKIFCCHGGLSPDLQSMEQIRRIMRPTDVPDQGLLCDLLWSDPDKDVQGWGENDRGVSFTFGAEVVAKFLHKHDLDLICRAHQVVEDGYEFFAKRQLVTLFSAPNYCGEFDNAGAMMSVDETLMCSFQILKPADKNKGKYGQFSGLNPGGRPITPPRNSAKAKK
Procedure: Isothermal titration calorimetry (ITC) experiments were carried out with MicroCal ITC200 instrument. rPP1cα was dialyzed in 25 mM Tris/HCl (pH 8.0), 150 mM NaCl, 1 mM TCEP (assay buffer) for 3 h first, then 16 h with a fresh batch of solution. Prior to measurements, rPP1cα (0.5–2 µM) was transferred into the sample cell of the calorimeter while the reference cell was filled with the assay buffer. P-Thr696-MYPT1^690−701 (5–20 µM) in the assay was applied to the syringe and 2 µL aliquot (19 times) was injected into the cell at a stirring rate of 300 rpm at 25 °C. The reference power was 5 µcal/s. The titration data were analyzed with MicroCal ITC-Origin software using one set of site model to obtain binding parameters of protein–ligand interaction.

[2] = tested on: native catalytic subunit of PP1 (PP1c); assay: Phosphatase assay of native PP1c with ^32P-MLC20 substrate; assay type: biochemical, rabbit skeletal muscle; conditions: PP1c 1.5–2.2 nM, 1 µM ^32P-MLC20, pH 7.4, 30 °C; n = 4
Procedure: Figure 2 Effects of a phosphorylated peptide from MYPT1 on the activity of PP1c, PP2Ac and myosin phosphatase holoenzyme (Flag-MYPT1-PP1c). (A): The native catalytic subunit of PP1 (PP1c; ▼,●) or PP2A (PP2Ac; ∆) purified from rabbit skeletal muscle or Flag-MYPT1-PP1c overexpressed and isolated from tsa201 cells (○) was assayed in the presence of dephosphorylated (▼) or phosphorylated (○,●,∆) MYPT1 peptide of R^690QSRRS(pT696)QGVTL^701 (P-Thr696-MYPT1^690−701) with ^32P-MLC20 substrate as described in Section 4. Values are mean ± SD (n = 4). Phosphatase activity in the absence of peptide was taken 100%. (B): Interaction of recombinant PP1cα with the phosphorylated peptide assessed by microscale thermophoresis (MST) or (C): with isotherm titration calorimetry (ITC) as described in Section 4. […] Only the axis text 'MYPT1^690-701 peptides' names the substance, and no target is printed. / Panel C: the picture prints no substance label for the ITC parameters.
The ^32Pi released from ^32P-MLC20 substrate were determined as previously described. The assay (80 µL) to determine the half-life of dephoshorylation for ^32P-MLC20 (10 µM) in the presence of various concentration of P-Thr696-MYPT1^690−701 (10–500 µM) was carried out in a similar fashion except that 5 µL aliquots were removed from the reaction mixture at different intervals for radioactivity measurements.

[3] = target: T1, recombinant PP1cα (rPP1cα); assay: Microscale thermophoresis (MST); assay type: binding; conditions: rPP1cα 2 µM, peptide 9.16 nM-300 µM, 25 mM Tris/HCl, 100 mM NaCl, 1 mM DTT, 0.1% PEG 8000, pH 8.0; intrinsic fluorescence, Monolith NT.LabelFree
Procedure: The interaction of P-Thr696-MYPT1^690−701 and the recombinant PP1cα (rPP1cα) was studied by Monolith^TM NT.LabelFree (MST power: 40%; LED Power: 10%) instrument (NanoTemper Technologies GmbH, Munich, Germany). A 16-point two-fold P-Thr696-MYPT1^690−701 peptide dilution series was generated (9.16 nM-300 µM) in 25 mM Tris/HCl, 100 mM NaCl, 1 mM DTT, 0.1% PEG 8000, pH 8.0 and mixed with rPP1cα (2 µM). The mixtures were loaded into NT.LabelFree standard capillaries. The capillaries on the capillary tray were scanned and intrinsic fluorescence change of rPP1cα upon ligand binding was recorded. The data were analyzed by MO.Affinity Analysis v2.3 software.

effect on PP1c activity [2]: without effect
Substance: MYPT1^690−701: synthesized MYPT1 peptide, non-phosphorylated (RQSRRSTQGVTL; UniProt O14974 690-701, looked up, fragment)
KD by ITC [1]: no MST or ITC signals suitable for quantitative evaluation were obtained
KD by MST [3]: no MST or ITC signals suitable for quantitative evaluation were obtained
